The values that follow come from PMC3984498.

For the experiment, the target named is V[2]-TRF2ΔBΔM. Nature of the experiment: split reporter.

The substance “Venus fragment-tagged Ku70 (V[1]-Ku70 / V[2]-Ku70) (from UniProt P12956 1-609) (natural protein)” came in with a PCA fluorescence lower than with wild-type TRF2 of 45%.
